Targets include rVSV-Delta spike (SARS-CoV-2 Delta, UniProt P0DTC2 14-1252); BA.2; rVSV Beta spike (SARS-CoV-2 Beta, UniProt P0DTC2 14-1252).
What all share (test): SPR
(In general: Surface plasmon resonance follows binding to a sensor surface in real time, without labels.)

The target in test [1] is SARS-CoV-2 Omicron BA.1 spike (SARS-CoV-2 Omicron BA.1, UniProt P0DTC2 14-1208).

B1: Fab 2A10 (antibody, V domains shown)
VH: QVQLVESGGGLIQPGGSLRLSCAASEFIVSSNYMSWVRQAPGKGLEWVSLLYSGGTTYYADSVKGRFTISRDNSKNTLFLQMNSLRAEDTAMYYCARDRGPWLHDYWGQGTLVTVS
VL: DIVMTQSPSSLSASVGDRVTITCQASQDINKYCNWYQQKPGKAPKLLIYDASNLETGVPSRFSGSGSGTDFTFTINSLQPEDIATYYCQQYDNLPPTFGGGTKVEIK
As to B1, the values for the Kd (in test [1]; in the test with rVSV-Delta spike) were 4420 pM and 132 pM, respectively.

B2: Fab 1C3 (Fab, V domains shown)
VH: QVQLLESGGGLVQPGRSLRLSCAASGFTFDDYAMHWVRQPPGKGLEWVSGSSWNSGSVVYADSVKGRFTISRDSAKNSLHLQMNSLRVEDTALYYCAKAVDPTRGSYSPDYGFDIWGQGTMVTVS
VL: not shown
Turning to B2, the Kd with BA.2 is 23 pM.

B3: 1C3 antigen-binding fragment (Fab) (Fab, V domains shown)
VH: QVQLLESGGGLVQPGRSLRLSCAASGFTFDDYAMHWVRQPPGKGLEWVSGSSWNSGSVVYADSVKGRFTISRDSAKNSLHLQMNSLRVEDTALYYCAKAVDPTRGSYSPDYGFDIWGQGTMVTVS
VL: not shown
Turning to B3, the figures for the Kd (in test [1]; with rVSV Beta spike; with rVSV-Delta spike) were 41 pM, 39 pM and 36 pM, respectively.

Usually Kd stands for a measure of binding affinity in units of concentration. A lower Kd goes with higher affinity.

The values are drawn from patent US20250382353A1 (published 2025).
